The nature of this series: yeast display, Sf9 membrane polyspecificity reagent, FACS + sequencing; frameworks hold sequencing errors. The essentials:
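Polyreactivity labels are assigned by the sorting gate from which each nanobody was recovered. The gates were low and high (top ~1%), set on anti-HA fluorescence for expression and streptavidin fluorescence for reagent binding. Before sorting, galactose-induced (36–48 hours) yeast display cells were stained for 1 hour at 4 °C with 10% biotinylated, detergent-solubilized Sf9 membrane reagent.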
With “QVQLVESGGGLVQAGGSLRLSCAASGSTFPYYVMGWYRQAPGKERELVATITNSGGSTYYADSVKGRFTISRDNAKNTVYLQMNSLKPEDTAVYYCAAVYWYGLYHRYYYWGQGTQVTVSS”, the “polyreactivity (PSR sort gate)” value is “low polyreactivity”.
In the case of “QVQLVESGGGLVQAGGSLRLSCAASGRIFPGNAMGWYRQAPGKEREFVAAINTRGGITYYADSVKGRFTISRDNAKNTVYLQMNSLKPEDTAVYYCARTYYPVDGEYDYWGQGTQVTVSS”, the “polyreactivity (PSR sort gate)” value is reported as “low polyreactivity”.
As to “QVQLVESGGGLVQAGGSLRLSCAASGLSFSYYAMVWYRQAPGKERELVAAITSSGGNTYYADSVKGRFTISRDNANNTVYLQMNSLKPEDTAVYYCNDRRYLRGYGYGYWGQGTQVTVSS”, the “polyreactivity (PSR sort gate)” value is “high polyreactivity”.
With “QVQLVESGGGLVQAGGSLRLSCAASGRTFYKNTMGWYRQAPGKERELVAGISQRGGRTYYADSVKGRFTISRDNANYTVYLQMNSLKPEDTAVYYCAVRSYGHGFDYWGQGNQVTVSS” the entry was “high polyreactivity”; with “QVQLVESGGGLVQAGGSLRLSCAASGSIFYSYAMGWYRQAPGKERELVADITSSGGSTYYADSVKGRFTISRDNAKNTVYFQMNSLKPEDTAVYYCAASSPAFYGMRYNYWGHGTQVTVSS”, “low polyreactivity”; with “QVQLVESGGGLVQAGGSLRLSCAASGRIFYANAMGWYRQAPGKERELVAGISSGGITNYADSVKGRFTISRDNAKNTVYLQMNSLKPEDTAVYYCAVESWNRWRNRNDYWGQGSQVTVSS”, “low polyreactivity”.
With “QVQLVESGGGLVQAGASLRLSCAASGSTFLLNAMGWYRQAPGKERELVAAITSSGGTNYADSVKGRFTISRDNAKNTVYLQMNSLKPEDTAVYYCNTRYSPGYQGSEVDYWGQGTQVTVSS” the entry was “low polyreactivity”.
With “QVQLVESGGGLVQAGGSLRLSCAASGYIFGGYAMGWYRQAPGKERELVAAISRSGGSTYYADSVKGRFTISRDNAKNTVYLQMNSLKPEDTAVYYCAVRGYTLRYGYWGQGTQVTVSS”, the “polyreactivity (PSR sort gate)” value is “high polyreactivity”.
In the case of “QVQLQESGGGLVQAGGSLRLSCAASGNISVTGFMGWYRQAPGKERELVASIGIGGTTYYADSVKGRFSISRDNAKNTVYLKMNSLKQEDTSVYYCAARYLYYAYSYWGQGTQVTVSS” it was “low polyreactivity”.
For the sequence “QVQHVESGGGLVQAGGSLRLSCAASGFTFFGDYAMGWYRQAPGKERELVAGISVSGGSTYYADSVKGRFTISRDNAKNSVYLQMNSLKPEDTGVYYCAARYSLKGGRYVYWGQGTQVTVSS”, the “polyreactivity (PSR sort gate)” value was “high polyreactivity”.
In the case of “QVQLVESGGGLVQAGRSLRLSCAASGNIFIRYAMGWYRQAPGKEREVVAAISQSGGGTSYADSVKGRFTISRDNAKNTVYLQMNSLKPEDTAVYYCNARYWRYPWRFGAWVGHDYWGQGTQVTVSS” it was “low polyreactivity”; in that of “QFQLEESGVGLVQAGGSLRLSCAASGFTFNVYAMGWYRQAPGKERELVAAIRWGAGSTYYADSVKGRFTISRDNAKNTVYLQMNSLKPEDTAVYYCAKDSGVWRYDHWGQGTQVTVSS”, “low polyreactivity”; in that of “QVQLVESGGGLVQAGGSLRLSCAASGGLFYYNAMGWYRQAPGKERELVAAISGSGGTTYYADSVKGRFTISRDNAKNTVYLQMNSLKPEDTAVYYCAKRPYTVIAYSRYGYWGQGTQVTVSS”, “high polyreactivity”.
In the case of “QVQLVVSGGGLVQAGGSLRLSCAPSGRTFKPYVMGWYRQAPGKERELVAAISSRGGSTYYADSVKGRFTISRDNEKTTVFLQMNSLKPEDTAVYYCNAAYWFSNKNGYWGQGTQVTVSS” it was “high polyreactivity”; in that of “QCQLVVSGGGLVQAGGSLRISCSASGSTFGVYSMGWYRQAPGKERELFATINSGGSTNYADSVKGRFTISRDNAKNTVYLQMNSLKPEDTAVYYCASGPFWQDFYVYEYDYWGQGTQVTVSS”, “low polyreactivity”; in that of “QVQLVESGGGLVQAGGSLRLSCAASGRTIAINAMGWYRQAPGKEREFVAAITSRSSRTYYADSVKGRFTISRDNAKNTVYLQMNSLKPEDTAVYYCARGSELGYYAWVYYWGQGTQVTVSS”, “high polyreactivity”.
Consider “QVQLVESGGGLVQAGGSLRLSCAASGSTFAYYAMGWYRQAPGKERELVAGISGSGGSTYYADSVKGRFTISRDNAKNTVYLQMNSLKPEVTAVYYCAVVQRSKRTYPWYDYWGQGTQVTVSS”, for which the “polyreactivity (PSR sort gate)” value is recorded as “low polyreactivity”.
Consider “QVQLVETVGGLVQAGGSLRLSCAASGSIFTHYAMGWYREAPGKERELVAAITWSGGSTYYADSVKGRFTISRDNAKNTVYLQMNSLIPEDTAVYYCNVAWVGVSLVYGPFEYDYWGQGTQVTVSS”, for which the “polyreactivity (PSR sort gate)” value is on record as “high polyreactivity”.
In the case of “QVQLVESGGGLVQAGGSLRLSCAASGSTFYENAMGWYRQAPGKERELVAAITWSGGRTYYADSVKGRFTISRDNAKNTVYLQMNSLKPEDTAVYYCNARARSRKFYYWGQGTQVTVSS” it was “high polyreactivity”; in that of “QVQLVESGGGLVQAGGSLRLSCAASGSTFVANAMGWYRQAPGKERELVAAISGAGGGTYYADSVKGRFTISRDNAKNTVYLQMNSLKPEDTAVYYCAAVPWYYYHYWVSHPYGGDYWGQGTQVTVSS”, “low polyreactivity”; in that of “QVQLVESGGGLVQAGGSLRLSCAASGRIFFANTMGWYRQATGKERELVAAISLSSGSRYYADSVKGRFTISRDNAKNTVYLQMNSLKPEDTAVYYCAARGYSHVASRLYYYWGQGTQVTVSS”, “high polyreactivity”.
“QVQLVESGGGLVQAGGSLRLTCAASGSIFGPNTMGWYRQAPGKERELVAAIRCGGSTNYADSVKWRFTISRDNAKNTVYLQMNSLKPDDTAVYYCIATWNLFPGVLDRYVYWGQGTQVTVSS”: the “polyreactivity (PSR sort gate)” value is on record as “low polyreactivity”.
With “QVQLVESGGGLVQAGGSLRLSCAASGFTIFGYAMGWYRQAPGKERELVAAISTIDGDTYYADSVKGRFTISRDNAKNTVYLQMNSLKPEDTAVYYSAADDYIDGDDYWGQGTQVTVSS” the entry was “low polyreactivity”; with “QVQLEESGGGLVQAGGRHRLSCAASGNIFTSYTMGWYRQAPGKERELVAAISGGGGSTYYADSVKGRFTISRDNAKNTVYLQMNSLKPEDTAVYYCNAGRWWRRGYGYWGQGTQVTVSS”, “high polyreactivity”.
Consider “QVQLVESGGGLVQAGGSLRLSCPASGFTFRRYAMGWSRQQPGKESELDAAITRNGGSTYYADSVKGRFTISRDNAKNTVYLLINRLKPEDTAVYYCNAVLYTPVYDCFDSWGQGTQVTVSS”, for which the “polyreactivity (PSR sort gate)” value is given as “high polyreactivity”.
On to “QVQLVESGVGLVQAGGSLRLSCAASGFTFYSNAMGWYRQAPGKERELVAAITGRVGRTYYADSVKGRFTISRDNAKNTVYLLMNSLKPEDTAVYYCAAVYQVSTWGGRYYFRQGYDYWGQGTQVTVSS”, for which the “polyreactivity (PSR sort gate)” value is on record as “high polyreactivity”.
With “QVQLVESRGGLVQAGGSLRLSCAASGRNFPINTMGWYRQAPGKERELVAAIRTSGSSTYADSVKGRFTISRDNAKNSVYLQMNSLKPEDTAVYYCNTKYPGRGYYWGQGTQVTVSS” the entry was “high polyreactivity”; with “QVQLAESGGGLVQAGGSLRLSCAASGSTSAKNVMGWYRQPPGTERELVAAISRSGGRTYYADSVKGRFTISRDNAKNTVYLQMNSLKPVDTAVYYCYTRYVKGFYWGQGTLVTVSS”, “high polyreactivity”.
In the case of “QVQLVESGGGLVQAGGSLRLSCAASGRTLFRYAMGWYRQAPGKERELVAAISRSGGTTYYADSVKGRFTISRDNAKNTVYLQMNSLKPEDTAVYYCAARFVLRRDYGYWGQGTQVTVSS” it was “high polyreactivity”.
Take “QVQLVESGGGLVQAGGSLRLSCAASGRIFGVNTMGWYRQEPGKEREMVAVIRESDGSTYYADSVKGRFTISRDNAKNTVYLQMNSLKPEDTAVYYCAKDWYRSPSTYEWNSQYGYWGQGTQVTVSS”: the “polyreactivity (PSR sort gate)” value is listed as “low polyreactivity”.

Source of the values: the nanobody polyreactivity screen of Harvey et al. (2022).
